This passage reports Kd results from the supplement of paper PMC6379048.

The target of one data set is T1, SKIV2L2 (UniProt P42285).
T1 sequence: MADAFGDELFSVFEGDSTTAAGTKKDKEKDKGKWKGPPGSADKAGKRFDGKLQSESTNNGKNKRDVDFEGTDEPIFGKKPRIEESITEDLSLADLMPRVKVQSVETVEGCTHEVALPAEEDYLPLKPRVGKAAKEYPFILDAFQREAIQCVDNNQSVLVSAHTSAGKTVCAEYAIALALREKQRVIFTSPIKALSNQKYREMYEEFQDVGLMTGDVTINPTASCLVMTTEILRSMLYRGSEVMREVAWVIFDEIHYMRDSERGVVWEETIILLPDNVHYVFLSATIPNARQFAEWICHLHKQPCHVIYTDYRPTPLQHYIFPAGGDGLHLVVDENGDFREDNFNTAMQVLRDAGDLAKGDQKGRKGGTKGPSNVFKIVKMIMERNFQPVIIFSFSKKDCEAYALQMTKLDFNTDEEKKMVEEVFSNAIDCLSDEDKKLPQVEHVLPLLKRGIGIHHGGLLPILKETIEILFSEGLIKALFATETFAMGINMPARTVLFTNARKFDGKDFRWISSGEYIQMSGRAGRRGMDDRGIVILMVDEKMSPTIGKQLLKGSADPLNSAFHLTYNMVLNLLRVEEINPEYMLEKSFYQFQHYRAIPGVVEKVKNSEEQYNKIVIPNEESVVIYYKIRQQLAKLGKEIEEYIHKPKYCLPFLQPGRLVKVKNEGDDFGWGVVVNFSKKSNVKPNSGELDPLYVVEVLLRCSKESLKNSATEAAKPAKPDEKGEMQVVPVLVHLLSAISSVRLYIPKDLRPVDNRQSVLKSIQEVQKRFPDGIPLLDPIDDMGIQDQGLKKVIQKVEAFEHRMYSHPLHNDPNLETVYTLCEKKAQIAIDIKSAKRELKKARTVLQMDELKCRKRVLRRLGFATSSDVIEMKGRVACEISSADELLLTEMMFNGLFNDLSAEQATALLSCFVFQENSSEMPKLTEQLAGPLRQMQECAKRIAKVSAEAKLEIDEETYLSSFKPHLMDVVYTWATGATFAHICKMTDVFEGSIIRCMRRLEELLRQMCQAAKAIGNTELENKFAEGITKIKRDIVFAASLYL
Put plainly: Kd (EC50 corrected by depletion factor). In a few lines:
(§1)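 To obtain EC50, data were fitted with a four-parameter log-logistic model; Kd was then EC50 multiplied by a protein-dependent depletion factor. Beforehand, free RNA oligos (0 nM to 30 μM) were pre-incubated with HEK293-FT lysate (2.5 mg protein/well) for 1 h at 4°C. The lysate then spent 30 min at 4°C with the same 5′-amino-C6 oligos coupled to NHS-Sepharose beads, and bound proteins were quantified by label-free LC-MS/MS, normalised to the control.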

A further data set deals with T2, NKRF (UniProt O15226).
T2 sequence: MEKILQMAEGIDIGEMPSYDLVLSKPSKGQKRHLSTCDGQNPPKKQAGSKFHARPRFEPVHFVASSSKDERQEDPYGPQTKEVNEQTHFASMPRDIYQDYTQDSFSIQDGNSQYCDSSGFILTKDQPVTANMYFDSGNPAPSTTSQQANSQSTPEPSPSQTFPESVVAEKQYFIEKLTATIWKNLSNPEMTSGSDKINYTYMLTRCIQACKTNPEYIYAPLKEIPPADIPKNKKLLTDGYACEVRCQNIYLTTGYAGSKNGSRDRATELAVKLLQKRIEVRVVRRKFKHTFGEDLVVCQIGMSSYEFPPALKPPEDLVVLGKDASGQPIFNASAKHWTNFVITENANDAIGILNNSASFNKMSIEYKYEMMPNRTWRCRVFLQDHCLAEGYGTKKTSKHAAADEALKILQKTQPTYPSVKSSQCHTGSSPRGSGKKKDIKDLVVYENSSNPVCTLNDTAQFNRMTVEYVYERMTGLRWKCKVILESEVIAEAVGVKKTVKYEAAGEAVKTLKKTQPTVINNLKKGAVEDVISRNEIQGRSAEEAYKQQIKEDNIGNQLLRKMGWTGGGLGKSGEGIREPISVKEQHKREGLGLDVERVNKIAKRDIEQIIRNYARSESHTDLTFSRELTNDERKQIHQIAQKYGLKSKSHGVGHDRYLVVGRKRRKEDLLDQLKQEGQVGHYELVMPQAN
The data set can be described thus: Kd (EC50 corrected by depletion factor). The gist of the method: as §1

With AAUAAA, the dissociation constant Kd – broadly, the constant that tells how readily two partners part at equilibrium – with SKIV2L2 amounted to 0.393 µM; in the data set with NKRF it was 0.222 µM.

In the case of CUGUCCU, the Kd with SKIV2L2 turned out to be 2.45 µM; in the data set with NKRF, 0.298 µM.

With UAUUUAU, the dissociation constant (Kd) worked out at 0.202 µM in the data set with SKIV2L2 and 0.223 µM with NKRF.
